Laboratory results taken from paper PMC6555819, “Comprehensive study of nuclear receptor DNA binding provides a revised framework for understanding receptor specificity”.

These binders were tested against FXR:RXRa (Homo sapiens, UniProt Q96RI1;P19793 full;full) (assay: no ligand; PBM; 270 nM : 90 nM RXRa; PBS pH 7.4, 2% milk, 0.02% Triton X-100, 1 mM DTT, BSA, 0.4 mg/ml salmon testes DNA). Settings: tags: His kept;His cleaved; copies: 1;1; label: surface-attached array probe.
Method in brief: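 The probes on custom Agilent 4×180K protein-binding microarrays were double-stranded, with 34-nt variable regions bearing direct-repeat seeds, single-nucleotide variants, half-site ablations and random human genomic background sequences. Incubation lasted 1 h with ligand-free nuclear receptor dimers in PBS pH 7.4, 2% milk, 0.02% Triton X-100, 1 mM DTT, 0.2 mg/mL BSA and 0.4 mg/ml salmon testes DNA. Antibodies against each partner (one per run) detected bound dimers, and fluorescence scans were regression-normalized. Binding z-scores take the random background probes as reference.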

Sequence of FXR:RXRa (Q96RI1 whole entry, chain 1 of 2): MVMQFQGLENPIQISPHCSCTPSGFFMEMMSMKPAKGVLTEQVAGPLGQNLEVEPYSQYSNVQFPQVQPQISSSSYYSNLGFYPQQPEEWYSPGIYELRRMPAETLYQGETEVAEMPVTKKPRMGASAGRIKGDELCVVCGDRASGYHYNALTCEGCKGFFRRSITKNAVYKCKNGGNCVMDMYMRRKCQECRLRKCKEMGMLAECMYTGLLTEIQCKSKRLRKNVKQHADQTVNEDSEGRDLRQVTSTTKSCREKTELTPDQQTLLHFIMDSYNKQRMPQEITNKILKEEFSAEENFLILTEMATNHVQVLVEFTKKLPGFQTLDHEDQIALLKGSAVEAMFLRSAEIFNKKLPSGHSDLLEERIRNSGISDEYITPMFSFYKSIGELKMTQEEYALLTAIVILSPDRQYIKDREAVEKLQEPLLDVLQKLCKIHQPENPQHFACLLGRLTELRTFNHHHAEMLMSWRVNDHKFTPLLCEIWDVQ
Sequence of FXR:RXRa (P19793 whole entry, chain 2 of 2): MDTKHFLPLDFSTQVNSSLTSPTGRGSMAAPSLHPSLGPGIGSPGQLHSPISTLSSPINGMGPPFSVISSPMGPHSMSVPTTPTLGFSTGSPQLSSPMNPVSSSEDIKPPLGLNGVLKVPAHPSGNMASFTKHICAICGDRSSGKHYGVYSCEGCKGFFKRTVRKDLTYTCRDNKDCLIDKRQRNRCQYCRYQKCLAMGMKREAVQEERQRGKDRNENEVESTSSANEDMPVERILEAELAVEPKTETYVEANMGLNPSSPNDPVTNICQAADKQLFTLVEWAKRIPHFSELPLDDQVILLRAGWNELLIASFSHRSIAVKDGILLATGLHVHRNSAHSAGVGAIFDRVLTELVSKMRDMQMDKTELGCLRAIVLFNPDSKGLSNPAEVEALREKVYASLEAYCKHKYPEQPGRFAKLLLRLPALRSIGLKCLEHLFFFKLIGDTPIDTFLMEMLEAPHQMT

Binder	binding signal
NRC3_wobSeed88_DR3_C21A_o1 (dsDNA) DNA 1: GCTAGCCTAGGTCATGCGGGACAGTATAGTGTCGGCGCGATTGACAGCGTAGAATGAAGG DNA 2: CCTTCATTCTACGCTGTCAATCGCGCCGACACTATACTGTCCCGCATGACCTAGGCTAGC	4.37 PBM z-score against 500 random probes
NRC3_wobSeed88_DR3_G20C_o1 (dsDNA) DNA 1: GCTAGCCTAGGTCATGCGGCCCAGTATAGTGTCGGCGCGATTGACAGCGTAGAATGAAGG DNA 2: CCTTCATTCTACGCTGTCAATCGCGCCGACACTATACTGGGCCGCATGACCTAGGCTAGC	3.84 PBM z-score against 500 random probes
NRC3_wobSeed39_DR1_G22T_o1 (dsDNA) DNA 1: GCCGAACTAGGTCAAAGGACATTGAAAGGCGACGTAGCGATTGACAGCGTAGAATGAAGG DNA 2: CCTTCATTCTACGCTGTCAATCGCTACGTCGCCTTTCAATGTCCTTTGACCTAGTTCGGC	4.46 PBM z-score against 500 random probes
NRC3_wobSeed87_DR3_A5C_o1 (dsDNA) DNA 1: GCCGCACTAGGTCATCCAGGACAGTGAATACATTGAGCGATTGACAGCGTAGAATGAAGG DNA 2: CCTTCATTCTACGCTGTCAATCGCTCAATGTATTCACTGTCCTGGATGACCTAGTGCGGC	4.33 PBM z-score against 500 random probes
NRC3_wobSeed87_DR3_A23C_o1 (dsDNA) DNA 1: GCCGAACTAGGTCATCCAGGACCGTGAATACATTGAGCGATTGACAGCGTAGAATGAAGG DNA 2: CCTTCATTCTACGCTGTCAATCGCTCAATGTATTCACGGTCCTGGATGACCTAGTTCGGC	3.93 PBM z-score against 500 random probes
NRC3_wobSeed113_DR4_G29C_o1 (dsDNA) DNA 1: GCATATGTAGGTTAGCTGGGGTCATTCACACTAGGCGCGATTGACAGCGTAGAATGAAGG DNA 2: CCTTCATTCTACGCTGTCAATCGCGCCTAGTGTGAATGACCCCAGCTAACCTACATATGC	4.06 PBM z-score against 500 random probes
NRC3_wobSeed10_DR0_T4G_o1 (dsDNA) DNA 1: GCAGCGAAAGGTCGAGGTGAGTATAGAGAAAGGGAAGCGATTGACAGCGTAGAATGAAGG DNA 2: CCTTCATTCTACGCTGTCAATCGCTTCCCTTTCTCTATACTCACCTCGACCTTTCGCTGC	4.31 PBM z-score against 500 random probes
NRC3_wobSeed14_DR0_T8G_o1 (dsDNA) DNA 1: GCCCTGCGAGGTCATGGTCAGCTAATCTACAGTATGGCGATTGACAGCGTAGAATGAAGG DNA 2: CCTTCATTCTACGCTGTCAATCGCCATACTGTAGATTAGCTGACCATGACCTCGCAGGGC	7.8 PBM z-score against 500 random probes
NRC3_wobSeed37_DR1_A14G_o1 (dsDNA) DNA 1: GCCGTCCAAGGTCGAAGGTCAGTGAAGAGATGACGGGCGATTGACAGCGTAGAATGAAGG DNA 2: CCTTCATTCTACGCTGTCAATCGCCCGTCATCTCTTCACTGACCTTCGACCTTGGACGGC	3.76 PBM z-score against 500 random probes
NRC3_wobSeed138_DR5_G19C_o1 (dsDNA) DNA 1: GCGATACAGGGTCAGCTACAGGCCAGAGTATGGAAAGCGATTGACAGCGTAGAATGAAGG DNA 2: CCTTCATTCTACGCTGTCAATCGCTTTCCATACTCTGGCCTGTAGCTGACCCTGTATCGC	4.25 PBM z-score against 500 random probes
NRC3_wobSeed135_DR5_T8A_o1 (dsDNA) DNA 1: GCCGAACAAGGTCATTGACAGGACAGTGAATAGTAAGCGATTGACAGCGTAGAATGAAGG DNA 2: CCTTCATTCTACGCTGTCAATCGCTTACTATTCACTGTCCTGTCAATGACCTTGTTCGGC	7.74 PBM z-score against 500 random probes
NRC3_wobSeed135_DR5_A29G_o1 (dsDNA) DNA 1: GCCGAACTAGGTCATTGACAGGACAGTGGATAGTAAGCGATTGACAGCGTAGAATGAAGG DNA 2: CCTTCATTCTACGCTGTCAATCGCTTACTATCCACTGTCCTGTCAATGACCTAGTTCGGC	4.02 PBM z-score against 500 random probes
NRC3_wobSeed34_DR1_T4A_o1 (dsDNA) DNA 1: GCAACGAAAGGTCGAAGGTGAGTATACCCACCCGAAGCGATTGACAGCGTAGAATGAAGG DNA 2: CCTTCATTCTACGCTGTCAATCGCTTCGGGTGGGTATACTCACCTTCGACCTTTCGTTGC	4.23 PBM z-score against 500 random probes
NRC3_wobSeed34_DR1_A21C_o1 (dsDNA) DNA 1: GCATCGAAAGGTCGAAGGTGCGTATACCCACCCGAAGCGATTGACAGCGTAGAATGAAGG DNA 2: CCTTCATTCTACGCTGTCAATCGCTTCGGGTGGGTATACGCACCTTCGACCTTTCGATGC	4.14 PBM z-score against 500 random probes
NRC3_wobSeed82_DR3_A18C_o1 (dsDNA) DNA 1: GCATCGAAAGGTCGACGCGGTGAGTATACACCGTTTGCGATTGACAGCGTAGAATGAAGG DNA 2: CCTTCATTCTACGCTGTCAATCGCAAACGGTGTATACTCACCGCGTCGACCTTTCGATGC	3.87 PBM z-score against 500 random probes
NRC3_wobSeed114_DR4_C7A_o1 (dsDNA) DNA 1: GCAATAAAGGGTCATCGTAGGCCAGAGTACGCACAGGCGATTGACAGCGTAGAATGAAGG DNA 2: CCTTCATTCTACGCTGTCAATCGCCTGTGCGTACTCTGGCCTACGATGACCCTTTATTGC	7.8 PBM z-score against 500 random probes
NRC3_wobSeed114_DR4_G20C_o1 (dsDNA) DNA 1: GCAATACAGGGTCATCGTACGCCAGAGTACGCACAGGCGATTGACAGCGTAGAATGAAGG DNA 2: CCTTCATTCTACGCTGTCAATCGCCTGTGCGTACTCTGGCGTACGATGACCCTGTATTGC	7.71 PBM z-score against 500 random probes

Binder	binding signal
NRC3_wobSeed92_DR3_T13C_o1 (dsDNA) DNA 1: GCAGAATGAGGTCATTAAGATCAGGGAATTGCGGTCGCGATTGACAGCGTAGAATGAAGG DNA 2: CCTTCATTCTACGCTGTCAATCGCGACCGCAATTCCCTGATCTTAATGACCTCATTCTGC	7.7 PBM z-score against 500 random probes
NRC3_wobSeed112_DR4_G15C_o1 (dsDNA) DNA 1: GCTAGCCTAGGTCACATCGGGCCAGTATACGCTATAGCGATTGACAGCGTAGAATGAAGG DNA 2: CCTTCATTCTACGCTGTCAATCGCTATAGCGTATACTGGCCCGATGTGACCTAGGCTAGC	3.96 PBM z-score against 500 random probes
NRC3_wobSeed76_DR3_G9C_o1 (dsDNA) DNA 1: GCCCTACTCGGCCAAAAAGGTCATTGATGCCGATAAGCGATTGACAGCGTAGAATGAAGG DNA 2: CCTTCATTCTACGCTGTCAATCGCTTATCGGCATCAATGACCTTTTTGGCCGAGTAGGGC	3.98 PBM z-score against 500 random probes
NRC3_wobSeed44_DR1_A5T_o1 (dsDNA) DNA 1: GCTGTATGAGGTTAAAGATCAGGGAACGTGGCGTCGGCGATTGACAGCGTAGAATGAAGG DNA 2: CCTTCATTCTACGCTGTCAATCGCCGACGCCACGTTCCCTGATCTTTAACCTCATACAGC	3.64 PBM z-score against 500 random probes
NRC3_wobSeed50_DR2_G11T_o1 (dsDNA) DNA 1: GCCCTAGTTGTTCAGGAGGTCACACACCGGATATGAGCGATTGACAGCGTAGAATGAAGG DNA 2: CCTTCATTCTACGCTGTCAATCGCTCATATCCGGTGTGTGACCTCCTGAACAACTAGGGC	3.71 PBM z-score against 500 random probes
NRC3_wobSeed46_DR1_A25C_o1 (dsDNA) DNA 1: GCTTACCAAGGTGAAAGGTCGTTGCTGCACGCCTTGGCGATTGACAGCGTAGAATGAAGG DNA 2: CCTTCATTCTACGCTGTCAATCGCCAAGGCGTGCAGCAACGACCTTTCACCTTGGTAAGC	3.81 PBM z-score against 500 random probes
NRC3_wobSeed141_DR5_A29T_o1 (dsDNA) DNA 1: GCAGTCAAAGTTCAGGACGAGGTAACGTTAAGCACGGCGATTGACAGCGTAGAATGAAGG DNA 2: CCTTCATTCTACGCTGTCAATCGCCGTGCTTAACGTTACCTCGTCCTGAACTTTGACTGC	4.29 PBM z-score against 500 random probes
NRC3_wobSeed1_DR0_A20T_o1 (dsDNA) DNA 1: GCCAAACTAGGTCAAGGTCTAAGTCGGTTTGTGCCAGCGATTGACAGCGTAGAATGAAGG DNA 2: CCTTCATTCTACGCTGTCAATCGCTGGCACAAACCGACTTAGACCTTGACCTAGTTTGGC	3.61 PBM z-score against 500 random probes
NRC3_wobSeed15_DR0_G23A_o1 (dsDNA) DNA 1: GCCGAACTAGGTCAAGGACAGTAAATCTCCGCACGCGCGATTGACAGCGTAGAATGAAGG DNA 2: CCTTCATTCTACGCTGTCAATCGCGCGTGCGGAGATTTACTGTCCTTGACCTAGTTCGGC	3.73 PBM z-score against 500 random probes
NRC3_wobSeed13_DR0_C13T_o1 (dsDNA) DNA 1: GCCGTCCAAGGTTAAGGTCAGTGAAAGAGACTCGAAGCGATTGACAGCGTAGAATGAAGG DNA 2: CCTTCATTCTACGCTGTCAATCGCTTCGAGTCTCTTTCACTGACCTTAACCTTGGACGGC	4.12 PBM z-score against 500 random probes
NRC3_wobSeed63_DR2_T8A_o1 (dsDNA) DNA 1: GCCGAACAAGGTCACCAGGACAGTGAAGAGGTTGGAGCGATTGACAGCGTAGAATGAAGG DNA 2: CCTTCATTCTACGCTGTCAATCGCTCCAACCTCTTCACTGTCCTGGTGACCTTGTTCGGC	7.74 PBM z-score against 500 random probes
NRC3_wobSeed42_DR1_C7A_o1 (dsDNA) DNA 1: GCTATAAAGGGTCAAAGGCCAGAGTACGAATGTCGAGCGATTGACAGCGTAGAATGAAGG DNA 2: CCTTCATTCTACGCTGTCAATCGCTCGACATTCGTACTCTGGCCTTTGACCCTTTATAGC	7.71 PBM z-score against 500 random probes
NRC3_wobSeed136_DR5_T16A_o1 (dsDNA) DNA 1: GCTAGCCTAGGTCATACAGGGGCCAGTATAGAAAGCGCGATTGACAGCGTAGAATGAAGG DNA 2: CCTTCATTCTACGCTGTCAATCGCGCTTTCTATACTGGCCCCTGTATGACCTAGGCTAGC	4.09 PBM z-score against 500 random probes
NRC3_wobSeed27_DR1_T5G_o1 (dsDNA) DNA 1: GCACGCGGAGGACAAAGGTCAGAGCTACGCCAGTGAGCGATTGACAGCGTAGAATGAAGG DNA 2: CCTTCATTCTACGCTGTCAATCGCTCACTGGCGTAGCTCTGACCTTTGTCCTCCGCGTGC	4.39 PBM z-score against 500 random probes
NRC3_wobSeed134_DR5_G26C_o1 (dsDNA) DNA 1: GCGCTGCTAGGTCAACTGATGGTCACCTAAAGCTCGGCGATTGACAGCGTAGAATGAAGG DNA 2: CCTTCATTCTACGCTGTCAATCGCCGAGCTTTAGGTGACCATCAGTTGACCTAGCAGCGC	4.42 PBM z-score against 500 random probes
NRC3_wobSeed134_DR5_T23C_o1 (dsDNA) DNA 1: GCGCTGCTAGGTCAACTGATGGCCAGCTAAAGCTCGGCGATTGACAGCGTAGAATGAAGG DNA 2: CCTTCATTCTACGCTGTCAATCGCCGAGCTTTAGCTGGCCATCAGTTGACCTAGCAGCGC	3.9 PBM z-score against 500 random probes
